The experiment has as its system OG2 mouse embryonic fibroblasts. The experiment is described as follows: Induction of pluripotent stem cells (reprogramming) from OG2 mouse embryonic fibroblasts; GFP fluorescence clones counted. It counts as cell-based. The following applies: for induction of pluripotent stem cells with only SO, KO or Oct4: Jhdm1a and Jhdm1b together, mES medium with 50 μg/ml vitamin C, FIG. 3; for induction of pluripotent stem cells with only SO, KO or Oct4 / efficiency of reprogramming (inducing pluripotent stem cells) mediated by SKO / efficiency of reprogramming (inducing pluripotent stem cells) mediated by SKOM: control pMXs-FLAG empty vector; for efficiency of reprogramming (inducing pluripotent stem cells) mediated by SKO: with Klf4, Sox2, Oct4 (SKO); for efficiency of reprogramming (inducing pluripotent stem cells) mediated by SKO / efficiency of reprogramming (inducing pluripotent stem cells) mediated by SKOM: whether vitamin C present or not; for efficiency of reprogramming (inducing pluripotent stem cells) mediated by SKOM: with Klf4, Sox2, c-Myc, Oct4 (SKOM).

For the molecule `O=C1O[C@H]([C@@H](O)CO)C(O)=C1O` [vitamin C, reference compound], the “effect of vitamin C on reprogramming by Oct4 with Jhdm1b” value (Oct4 + Jhdm1b (OB), vitamin C present) was “achieves more significant effects”. Also, where the note is “SKO plus Jhdm1a or Jhdm1b, vitamin C in inducing medium (50 μg/mL), FIG. 1”, the “effect of vitamin C on improvement of reprogramming efficiency, SKO” value is on record as “the improvement was more significant”. In addition, the “effect of vitamin C on improvement of reprogramming efficiency, SKOM” value (SKOM plus Jhdm1a or Jhdm1b, vitamin C in inducing medium (50 μg/mL), FIG. 2) is “the improvement was more significant”.

B1: Jhdm1a: member of the JmjC-domain-containing histone demethylase family, expressed from pMXs-FLAG retroviral vector (SEQ ID NO: 1 / 7) (protein)
chain: MEPEEERIRYSQRLRGTMRRRYEDDGISDDEIEGKRTFDLEEKLQTNKYNANFVTFMEGKDFNVEYIQRGGLRDPLIFKNSDGLGIKMPDPDFTVNDVKMCVGSRRMVDVMDVNTQKGIEMTMAQWTRYYETPEEEREKLYNVISLEFSHTRLENMVQRPSTVDFIDWVDNMWPRHLKESQTESTNAILEMQYPKVQKYCLMSVRGCYTDFHVDFGGTSVWYHIHQGGKVFWLIPPTAHNLELYENWLLSGKQGDIFLGDRVSDCQRIELKQGYTFVIPSGWIHAVYTPTDTLVFGGNFLHSFNIPMQLKIYSIEDRTRVPNKFRYPFYYEMCWYVLERYVYCITNRSHLTKDFQKESLSMDMELNELESGNGDEEGVDREARRMNNKRSVLTSPVANGVNLDYDGLGKACRSLPSLKKTLSGDSSSDSTRGSHNGQVWDPQCSPKKDRQVHLTHFELEGLRCLVDKLESLPLHKKCVPTGIEDEDALIADVKILLEELASSDPKLALTGVPIVQWPKRDKLKFPTRPKVRVPTIPITKPHTMKPAPRLTPVRPAAASPIVSGARRRRVRCRKCKACVQGECGVCHYCRDMKKFGGPGRMKQSCVLRQCLAPRLPHSVTCSLCGEVDQNEETQDFEKKLMECCICNEIVHPGCLQMDGEGLLNEELPNCWECPKCYQEDSSDKAQKRKIEESDEEAVQAKVLRPLRSCEEPLTPPPHSPTSMLQLIHDPVSPRGMVTRSSPGAGPSDHHSASRDERFKRRQLLRLQATERTMVREKENNPSGKKELSEVEKAKIRGSYLTVTLQRPTKELHGTSIVPKLQAITASSANLRPNPRVLMQHCPARNPQHGDEEGLGGEEEEEEEEEEDDSAEEGGAARLNGRGSWAQDGDESWMQREVWMSVFRYLSRKELCECMRVCKTWYKWCCDKRLWTKIDLSRCKAIVPQALSGIIKRQPVSLDLSWTNISKKQLTWLVNRLPGLKDLLLAGCSWSAVSALSTSSCPLLRTLDLRWAVGIKDPQIRDLLTPPTDKPGQDNRSKLRNMTDFRLAGLDITDATLRLIIRHMPLLSRLDLSHCSHLTDQSSNLLTAVGSSTRYSLTELNMAGCNKLTDQTLFFLRRIANVTLIDLRGCKQITRKACEHFISDLSINSLYCLSDEKLIQKIS
modifications: FLAG tag; nucleotide acid sequence of coding regions for kdm2a
With B1, the “induction of pluripotent stem cells with only SO, KO or Oct4” value was “acted together to enable the induction of pluripotent stem cells”. The “efficiency of reprogramming (inducing pluripotent stem cells) mediated by SKO” value (FIG. 1) is listed as “obviously improved the efficiency of reprogramming”. For the same molecule, under “FIG. 2”, the “efficiency of reprogramming (inducing pluripotent stem cells) mediated by SKOM” value is reported as “obviously improved the efficiency of reprogramming”.

B2: Jhdm1b: member of the JmjC-domain-containing histone demethylase family, expressed from pMXs-FLAG retroviral vector (SEQ ID NO: 2 / 8) (protein)
chain: MEAEKDSGRRLRAIDRQRYDENEDLSDVEEIVSVRGFSLEEKLRSQLYQGDFVHAMEGKDFNYEYVQREALRVPLVFRDKDGLGIKMPDPDFTVRDVKLLVGSRRLVDVMDVNTQKGTEMSMSQFVRYYETPEAQRDKLYNVISLEFSHTKLEHLVKRPTVVDLVDWVDNMWPQHLKEKQTEATNALAEMKYPKVKKYCLMSVKGCFTDFHIDFGGTSVWYHVFRGGKIFWLIPPTLHNLALYEEWVLSGKQSDIFLGDRVERCQRIELKQGYTFFIPSGWIHAVYTPVDSLVFGGNILHSFNVPMQLRIYEIEDRTRVQPKFRYPFYYEMCWYVLERYVYCVTQRSYLTQEYQRELMLIDAPRKTSVDGFSSDSWLDMEEESCEQQPQEEEEEEEDKEEEGDGADKTPKPPTDDPTSPTSTPPEDQDSTGKKPKAPAIRFLKRTLSNESEESVKSTSMPTDDPKTPTGSPATEVSTKWTHLTEFELKGLKALVEKLESLPENKKCVPEGIEDPQALLEGVKNVLKEHVDDDPTLAITGVPVVSWPKKTAKNRVVGRPKGKLGPASAVKLAANRTTAGARRRRTRCRKCEACLRTECGECHFCKDMKKFGGPGRMKQSCIMRQCIAPVLPHTAVCLVCGEAGKEDTVEEEEGKFNLMLMECSICNEIIHPGCLKIKESEGVVNDELPNCWECPKCNHAGKTGKQKRGPGFKYASNLPGSLLKEQKMNRDNKEGQEPAKRRSECEEAPRRRSDEHPKKVPADGILRRKSDDVHLRRKRKYEKPQELSGRKRASSLQTSPGSSSHLSPRPPLGSSLSPWWRSSLTYFQQQLKPGKEDKLFRKKRRSWKNAEDRLSLANKPLRRFKQEPEDDLPEAPPKTRESDQSRSSSPTAGPSTEGAEGPEEKKKVKMRRKRRLVNKELSKELSKELNHEIQKTESTLAHESQQPIKSEPESENDEPKRPLSHCERPHRFSKGLNGTPRELRHSLGPGLRSPPRVMSRPPPSASPPKCIQMERHVIRPPPISPPPDSLPLDDGAAHVMHREVWMAVFSYLSHRDLCVCMRVCRTWNRWCCDKRLWTRIDLNRCKSITPLMLSGIIRRQPVSLDLSWTNISKKQLSWLINRLPGLRDLVLSGCSWIAVSALCSSSCPLLRTLDVQWVEGLKDAQMRDLLSPPTDNRPGQMDNRSKLRNIVELRLAGLDITDVSLRLIIRHMPLLSKLQLSYCNHINDQSINLLTAVGTTTRDSLTEVNLSDCNKVTDLCLSFFKRCGNICHIDLRYCKQVTKEGCEQFIAEMSVSVQFGQVEEKLLQKLS
modifications: FLAG tag; nucleotide acid sequence of coding regions for kdm2b
Regarding B2, the “induction of pluripotent stem cells with only SO, KO or Oct4” value is “acted together to enable the induction of pluripotent stem cells”. For the same molecule, the “completion of reprogramming by combination with Oct4 alone” value (Oct4 + Jhdm1b (OB), common culture medium without vitamin C) is on record as “can complete reprogramming in a common culture medium”. Also, the “efficiency of reprogramming (inducing pluripotent stem cells) mediated by SKO” value (FIG. 1) is on record as “obviously improved the efficiency of reprogramming”. The “efficiency of reprogramming (inducing pluripotent stem cells) mediated by SKOM” value (FIG. 2) is “obviously improved the efficiency of reprogramming”.

(Values after US9163218B2, “Method for increasing the efficiency of inducing pluripotent stem cells” (GUANGZHOU INSTITUTES OF BIOMEDICINE AND HEALTH, CHINESE …, priority 2011, dated 2015).)
